Laboratory results as given in patent US20250170255A1 (Daiichi Sankyo, published 2025).

Experiments:
[1] = target: T1, biotinylated human TROP2 antigen (human, UniProt P09758 27-274, C-terminal Avi tag sequence biotinylated); assay: ELISA, immobilised biotinylated human TROP2 antigen, chemiluminescence; after uPA pre-treatment (mask linker cleaved)
T1 construct: extracellular domain
T1 sequence (looked up): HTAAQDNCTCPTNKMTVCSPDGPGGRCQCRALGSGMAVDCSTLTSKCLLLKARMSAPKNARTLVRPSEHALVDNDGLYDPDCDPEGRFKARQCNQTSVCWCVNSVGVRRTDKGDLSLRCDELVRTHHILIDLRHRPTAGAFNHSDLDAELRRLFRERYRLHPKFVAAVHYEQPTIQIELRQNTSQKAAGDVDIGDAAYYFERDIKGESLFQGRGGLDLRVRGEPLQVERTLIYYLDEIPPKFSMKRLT
Protocol: (§1) NeutrAvidin (Thermo Fisher Scientific) diluted to 1 μg/ml with PBS was added at 50 μl/well to a 96-well Maxi-sorp plate (Black, Nunc) and immobilized at 4° C. overnight. The plate was washed with PBS containing 0.05% (w/v) Tween-20 (BioRad) (ELISA buffer) and then blocked with Blocker Casein (Thermo Fisher Scientific). The plate was washed with ELISA buffer, the biotinylated human TROP2 antigen (Accession Number: P09758; the extracellular domain was purified by the method known to a person skilled in the art and the C-terminal Avi tag sequence was then biotinylated) diluted to 1 μg/ml with PBS was added at 50 μl/well, and the resultant was then agitated for 30 minutes at room temperature. […] The plate was washed with ELISA buffer, 50 μl of the horseradish peroxidase (HRP)-labeled anti-human IgG antibody (Jackson Immuno Research Laboratories) diluted to 2,500-fold with ELISA buffer was added, and the resultant was then agitated for 30 minutes at room temperature. The plate was washed with ELISA buffer, the SuperSignal Pico ELISA chemiluminescent substrate (Thermo Fisher Scientific) was added, and chemiluminescence 10 minutes thereafter was then assayed using a plate reader.

[2] = target: T1, biotinylated human TROP2 antigen; assay: ELISA with and without uPA
[3] = target: T1, biotinylated human TROP2 antigen; assay: ELISA, immobilised biotinylated human TROP2 antigen, chemiluminescence; without uPA
Protocol: as §1

[4] = target: T1, biotinylated human TROP2 antigen; assay: ELISA pH 7.5 against pH 5.5
[5] = target: T1, biotinylated human TROP2 antigen; assay: ELISA, immobilised biotinylated human TROP2 antigen, chemiluminescence; after MMP1 pre-treatment (mask linker cleaved)
[6] = target: T1, biotinylated human TROP2 antigen; assay: ELISA, immobilised biotinylated human TROP2 antigen, chemiluminescence; pH 5.5
[7] = target: T1, biotinylated human TROP2 antigen; assay: ELISA, immobilised biotinylated human TROP2 antigen, chemiluminescence; pH 7.5
[8] = target: T1, biotinylated human TROP2 antigen; assay: ELISA with and without MMP1
[9] = target: T1, biotinylated human TROP2 antigen; assay: ELISA, immobilised biotinylated human TROP2 antigen, chemiluminescence; pH 7.5; remark: listed apart in the source
[10] = target: T1, biotinylated human TROP2 antigen; assay: ELISA, immobilised biotinylated human TROP2 antigen, chemiluminescence; pH 5.5; remark: listed apart in the source
Protocol: (§2) The plate was washed with PBS containing 0.05% (w/v) Tween-20 (BioRad) (ELISA buffer) and then blocked with Blocker Casein (Thermo Fisher Scientific). The plate was washed with ELISA buffer, the biotinylated human TROP2 antigen (Accession Number: P09758; the extracellular domain was purified by the method known to a person skilled in the art and the C-terminal Avi tag sequence was then biotinylated) diluted to 1 μg/ml with PBS was added at 50 μl/well, and the resultant was then agitated for 30 minutes at room temperature. […] The plate was washed with ELISA buffer, 50 μl of the horseradish peroxidase (HRP)-labeled anti-human IgG antibody (Jackson Immuno Research Laboratories) diluted to 2,500-fold with ELISA buffer was added, and the resultant was then agitated for 30 minutes at room temperature. The plate was washed with ELISA buffer, the SuperSignal Pico ELISA chemiluminescent substrate (Thermo Fisher Scientific) was added, and chemiluminescence 10 minutes thereafter was then assayed using a plate reader. […]

[11] = target: T1, biotinylated human TROP2 antigen; assay: ELISA, immobilised biotinylated human TROP2 antigen, chemiluminescence; pH 7.5; remark: listed apart in the source
Protocol: as §2

[12] = target: T1, biotinylated human TROP2 antigen; assay: ELISA, immobilised biotinylated human TROP2 antigen, chemiluminescence; pH 5.5; remark: listed apart in the source
[13] = target: T1, biotinylated human TROP2 antigen; assay: as above; remark: listed apart in the source
Protocol: as §2

[14] = target: T1, biotinylated human TROP2 antigen; assay: ELISA, immobilised biotinylated human TROP2 antigen, chemiluminescence; pH 6.0
[15] = target: T1, biotinylated human TROP2 antigen; assay: ELISA, immobilised biotinylated human TROP2 antigen, chemiluminescence; pH 7.5; remark: listed apart in the source
[16] = target: T1, biotinylated human TROP2 antigen; assay: as above; remark: listed apart in the source
[17] = target: T1, biotinylated human TROP2 antigen; assay: ELISA, immobilised biotinylated human TROP2 antigen, chemiluminescence; pH 5.5; remark: listed apart in the source
[18] = target: T1, biotinylated human TROP2 antigen; assay: ELISA, immobilised biotinylated human TROP2 antigen, chemiluminescence; pH 7.5; remark: listed apart in the source
[19] = target: T1, biotinylated human TROP2 antigen; assay: as above; remark: listed apart in the source
Protocol: as §2

[20] = target: T1, biotinylated human TROP2 antigen; assay: ELISA, immobilised biotinylated human TROP2 antigen, chemiluminescence; pH 6.5
[21] = target: T1, biotinylated human TROP2 antigen; assay: ELISA, immobilised biotinylated human TROP2 antigen, anti-FLAG-HRP detection; after MMP1 pre-treatment
Protocol: (§3) NeutrAvidin (Thermo Fisher Scientific) diluted to 1 μg/ml with PBS was added at 50 μl/well to a 96-well Maxi-sorp plate (Black, Nunc) and immobilized at 4° C. overnight. The plate was washed with PBS containing 0.05% (w/v) Tween-20 (BioRad) (ELISA buffer) and then blocked with Blocker Casein (Thermo Fisher Scientific). The plate was washed with ELISA buffer, the biotinylated human TROP2 antigen (Accession Number: P09758; the extracellular domain was purified by the method known to a person skilled in the art and the C-terminal Avi tag sequence was then biotinylated) diluted to 1 μg/ml with PBS was added at 50 μl/well, and the resultant was then agitated for 30 minutes at room temperature. […] The plate was washed with ELISA buffer, the SuperSignal Pico ELISA chemiluminescent substrate (Thermo Fisher Scientific) was added, and chemiluminescence 10 minutes thereafter was then assayed using a plate reader.
(§4) The resultant was then added to the plate comprising the human TROP2 antigen immobilized thereon at 50 μl/well. The bound scFv was detected using the HRP-labeled anti-FLAG antibody (Sigma-Aldrich) diluted to 5,000-fold with ELISA buffer.

[22] = target: T1, biotinylated human TROP2 antigen; assay: ELISA, immobilised biotinylated human TROP2 antigen, anti-FLAG-HRP detection; without MMP1
Protocol: as §3, §4

[23] = target: T1, biotinylated human TROP2 antigen; assay: as above; remark: listed apart in the source
Protocol: as §3, §4

[24] = target: T1, biotinylated human TROP2 antigen; assay: ELISA, immobilised biotinylated human TROP2 antigen, anti-FLAG-HRP detection; after MMP1 pre-treatment; remark: listed apart in the source
Protocol: as §3, §4

B1: anti-TROP2 masked antibody MHT1009 (antibody)
heavy: not shown
light: DIQMTQSPSSLSASVGDRVTITCKASQDVSTAVAWYQQKPGKAPKLLIYSASYRYTGVPSRFSGSGSGTDFTLTISSLQPEDFAVYYCQQHYITPLTFGQGTKLEIKRTVAAPSVFIFPPSDEQLKSGTASVVCLLNNFYPREAKVQWKVDNALQSGNSQESVTEQDSKDSTYSLSSTLTLSKADYEKHKVYACEVTHQGLSSPVTKSFNRGEC
notes: Full-length entries
For B1, the “EC50 (read off the curve)” value [1] was ~1 nM, the “EC50 ratio of binding intensity (without uPA / with uPA)” value [2] was 83 and the “EC50 (read off the curve)” value [3] was ~90 nM.

B2: anti-TROP2 masked antibody MHT1811 (antibody)
heavy: not shown
light: DIQMTQSPSSLSASVGDRVTITCKASQDVSTAVAWYQQKPGKAPKLLIYSASYRYTGVPSRFSGSGSGTDFTLTISSLQPEDFAVYYCQQHYITPLTFGQGTKLEIKRTVAAPSVFIFPPSDEQLKSGTASVVCLLNNFYPREAKVQWKVDNALQSGNSQESVTEQDSKDSTYSLSSTLTLSKADYEKHKVYACEVTHQGLSSPVTKSFNRGEC
notes: Full-length entries
In the case of B2, the “EC50 ratio (neutral pH conditions/acidic pH conditions)” value [4] is reported as 28.1, the “EC50 (read off the curve)” value [5] is reported as ~0.6 nM and the “EC50 (read off the curve)” value [6] is reported as ~1 nM. For the same binder, the “EC50 (read off the curve)” value [7] was ~30 nM and the “EC50 ratio (without the addition of MMP1/with the addition of MMP1)” value [8] was 48.4.

B3: anti-TROP2 masked antibody MHT1808 (antibody)
heavy: not shown
light: DIQMTQSPSSLSASVGDRVTITCKASQDVSTAVAWYQQKPGKAPKLLIYSASYRYTGVPSRFSGSGSGTDFTLTISSLQPEDFAVYYCQQHYITPLTFGQGTKLEIKRTVAAPSVFIFPPSDEQLKSGTASVVCLLNNFYPREAKVQWKVDNALQSGNSQESVTEQDSKDSTYSLSSTLTLSKADYEKHKVYACEVTHQGLSSPVTKSFNRGEC
notes: His cluster linker; Full-length entries
In the case of B3, the “EC50 (read off the curve)” value [9] is reported as ~30 nM, the “EC50 (read off the curve)” value [10] is reported as ~2 nM and the “EC50 (read off the curve)” value [11] is reported as ~50 nM. For the same binder, the “EC50 (read off the curve)” value [12] was ~1 nM, the “EC50 (read off the curve)” value [13] was ~1 nM and the “EC50 (read off the curve)” value [14] was ~4 nM. The “EC50 (read off the curve)” value [15] was ~20 nM.

B4: anti-TROP2 masked antibody MHT1810 (antibody)
heavy: not shown
light: DIQMTQSPSSLSASVGDRVTITCKASQDVSTAVAWYQQKPGKAPKLLIYSASYRYTGVPSRFSGSGSGTDFTLTISSLQPEDFAVYYCQQHYITPLTFGQGTKLEIKRTVAAPSVFIFPPSDEQLKSGTASVVCLLNNFYPREAKVQWKVDNALQSGNSQESVTEQDSKDSTYSLSSTLTLSKADYEKHKVYACEVTHQGLSSPVTKSFNRGEC
notes: His at every other position in the linker; Full-length entries; also called HMT1810
With B4 the “EC50 ratio (neutral pH conditions/acidic pH conditions)” value [4] was 7.8, the “EC50 (read off the curve)” value [16] was ~60 nM and the “EC50 (read off the curve)” value [17] was ~7 nM.

B5: anti-TROP2 masked antibody MHT1806 (antibody, human IgG1, kappa)
heavy: not shown
light: DIQMTQSPSSLSASVGDRVTITCKASQDVSTAVAWYQQKPGKAPKLLIYSASYRYTGVPSRFSGSGSGTDFTLTISSLQPEDFAVYYCQQHYITPLTFGQGTKLEIKRTVAAPSVFIFPPSDEQLKSGTASVVCLLNNFYPREAKVQWKVDNALQSGNSQESVTEQDSKDSTYSLSSTLTLSKADYEKHKVYACEVTHQGLSSPVTKSFNRGEC
For B5, the “EC50 ratio (neutral pH conditions/acidic pH conditions)” value [4] was 38.8, the “EC50 (read off the curve)” value [18] was ~200 nM and the “EC50 (read off the curve)” value [19] was ~200 nM. The “EC50 (read off the curve)” value [20] was ~50 nM.

B6: HT1-11-scFv-HL (scFv)
scFv: ADVNSQVQLVQSGAEVKKPGASVKVSCKASGYTFTTAGMQWVRQAPGQGLEWMGWINTHSGVPKYAEDFKGRVTISADTSTSTAYLQLSSLKSEDTAVYYCARSGFGSSYWYFDVWGQGTLVTVSSGGGGSGGGGSGGGGSDIQMTQSPSSLSASVGDRVTITCKASQDVSTAVAWYQQKPGKAPKLLIYSASYRYTGVPSRFSGSGSGTDFTLTISSLQPEDFAVYYCQQHYITPLTFGQGTKLEIKRGAPSGDYKDDDDKGAAAHHHHHH
notes: Unmasked scFv (VH-VL) expressed in E. coli, purified by Ni Sepharose; Full-length entry
With B6 the “EC50 (read off the curve)” value [21] was ~5 nM and the “EC50 (read off the curve)” value [22] was ~5 nM.

B7: HT1-11-scFv-LH (scFv)
scFv: ADVNSDIQMTQSPSSLSASVGDRVTITCKASQDVSTAVAWYQQKPGKAPKLLIYSASYRYTGVPSRFSGSGSGTDFTLTISSLQPEDFAVYYCQQHYITPLTFGQGTKLEIKRGGGGSGGGGSGGGGSQVQLVQSGAEVKKPGASVKVSCKASGYTFTTAGMQWVRQAPGQGLEWMGWINTHSGVPKYAEDFKGRVTISADTSTSTAYLQLSSLKSEDTAVYYCARSGFGSSYWYFDVWGQGTLVTVSSGAPSGDYKDDDDKGAAAHHHHHH
notes: Unmasked scFv (VL-VH) expressed in E. coli; Full-length entry
In the case of B7, the “EC50 (read off the curve)” value [23] is reported as ~3 nM and the “EC50 (read off the curve)” value [24] is reported as ~3 nM.
